The results in this text go back to patent US20130005646A1 (Novo Nordisk, published 2013).

Starred links: 1 amine or outer side, 2 acyl side, 3 side chain; linkers in the order of their positions; H or OH if unused. Positions of bridges follow the written chain, without caps; N, C: chain ends. *: point of attachment. C20 diacid = O=C(O)CCCCCCCCCCCCCCCCCCC(=O)*; γGlu = O=C(O)[C@H](CCC(=O)[*:2])N[*:1]

What all share (test): cell-based or functional assay
Experiment [1] has as its target T1, rat amylin 3(a) receptor (rat calcitonin(a) receptor + rat RAMP3) (rat, UniProt P32214 25-516; Q9JJ73 23-147).
T1 sequence (looked up) 1: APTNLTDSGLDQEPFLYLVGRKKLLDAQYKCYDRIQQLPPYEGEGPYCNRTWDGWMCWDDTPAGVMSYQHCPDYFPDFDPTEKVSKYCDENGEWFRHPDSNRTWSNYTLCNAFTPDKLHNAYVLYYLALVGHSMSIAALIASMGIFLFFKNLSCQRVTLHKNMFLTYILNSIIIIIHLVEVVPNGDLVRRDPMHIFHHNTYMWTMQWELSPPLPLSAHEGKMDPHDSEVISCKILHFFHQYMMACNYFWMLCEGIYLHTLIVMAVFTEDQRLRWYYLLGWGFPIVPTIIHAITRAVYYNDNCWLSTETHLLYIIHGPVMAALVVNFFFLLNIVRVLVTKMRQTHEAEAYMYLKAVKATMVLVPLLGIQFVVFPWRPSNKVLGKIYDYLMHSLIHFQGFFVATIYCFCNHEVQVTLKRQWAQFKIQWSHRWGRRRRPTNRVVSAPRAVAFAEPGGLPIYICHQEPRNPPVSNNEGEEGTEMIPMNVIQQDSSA
T1 sequence (looked up) 2: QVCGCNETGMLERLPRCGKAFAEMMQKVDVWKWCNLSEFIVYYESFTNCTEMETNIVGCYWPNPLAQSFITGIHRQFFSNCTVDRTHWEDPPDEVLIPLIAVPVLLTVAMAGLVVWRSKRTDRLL

The target of experiment [2] is T2, human amylin 3(a) receptor (human calcitonin receptor + RAMP-3) (human, UniProt P30988 25-474; O60896 24-148).
T2 sequence (looked up) 1: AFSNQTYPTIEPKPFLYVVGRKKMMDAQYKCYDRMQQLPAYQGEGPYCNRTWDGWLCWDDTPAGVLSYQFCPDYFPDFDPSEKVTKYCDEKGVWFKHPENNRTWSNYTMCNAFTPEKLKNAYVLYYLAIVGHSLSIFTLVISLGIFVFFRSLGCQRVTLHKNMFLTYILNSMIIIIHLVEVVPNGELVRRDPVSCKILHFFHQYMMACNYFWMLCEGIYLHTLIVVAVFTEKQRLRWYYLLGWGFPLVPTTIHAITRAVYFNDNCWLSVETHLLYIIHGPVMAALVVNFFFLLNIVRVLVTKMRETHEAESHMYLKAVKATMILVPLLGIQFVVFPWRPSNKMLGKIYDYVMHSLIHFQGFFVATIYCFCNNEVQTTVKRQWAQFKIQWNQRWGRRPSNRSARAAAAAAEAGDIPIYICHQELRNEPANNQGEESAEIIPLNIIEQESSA
T2 sequence (looked up) 2: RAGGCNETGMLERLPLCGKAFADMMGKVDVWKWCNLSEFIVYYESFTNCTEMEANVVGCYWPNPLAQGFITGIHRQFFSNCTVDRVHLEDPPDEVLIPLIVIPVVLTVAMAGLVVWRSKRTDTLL

Experiment [3] deals with T3, rat calcitonin (a) receptor (rat, UniProt P32214 25-516).
T3 sequence (looked up): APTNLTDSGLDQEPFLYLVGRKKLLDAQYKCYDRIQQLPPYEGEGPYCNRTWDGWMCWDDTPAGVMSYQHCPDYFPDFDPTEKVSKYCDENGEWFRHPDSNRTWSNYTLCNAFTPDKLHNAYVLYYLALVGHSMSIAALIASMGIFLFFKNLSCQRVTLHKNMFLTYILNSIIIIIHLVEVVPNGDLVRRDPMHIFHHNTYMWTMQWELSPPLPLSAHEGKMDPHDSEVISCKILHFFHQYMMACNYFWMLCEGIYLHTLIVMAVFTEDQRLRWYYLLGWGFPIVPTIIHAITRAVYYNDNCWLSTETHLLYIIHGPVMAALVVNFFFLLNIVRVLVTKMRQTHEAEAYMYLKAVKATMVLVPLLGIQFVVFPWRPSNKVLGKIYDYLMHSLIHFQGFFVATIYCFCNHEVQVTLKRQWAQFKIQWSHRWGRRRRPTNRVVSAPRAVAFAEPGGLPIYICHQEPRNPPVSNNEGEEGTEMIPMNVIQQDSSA

The target of experiment [4] is T4, human calcitonin (a) receptor (human, UniProt P30988 25-474).
T4 sequence (looked up): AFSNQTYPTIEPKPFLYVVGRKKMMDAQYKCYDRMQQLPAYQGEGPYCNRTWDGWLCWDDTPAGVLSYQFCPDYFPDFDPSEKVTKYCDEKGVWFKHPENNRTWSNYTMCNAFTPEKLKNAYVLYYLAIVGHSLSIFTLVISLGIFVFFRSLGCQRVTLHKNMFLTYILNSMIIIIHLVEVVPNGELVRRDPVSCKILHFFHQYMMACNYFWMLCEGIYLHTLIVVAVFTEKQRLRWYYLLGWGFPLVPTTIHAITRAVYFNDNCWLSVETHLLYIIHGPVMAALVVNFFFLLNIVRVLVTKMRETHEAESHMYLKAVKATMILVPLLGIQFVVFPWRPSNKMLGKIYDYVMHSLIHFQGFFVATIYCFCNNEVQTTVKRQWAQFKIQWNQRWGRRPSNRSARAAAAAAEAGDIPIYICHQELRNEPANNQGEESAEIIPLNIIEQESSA

B1: N-alpha-[(S)-4-Carboxy-4-(19-carboxynonadecanoylamino)butyryl]-His-His-[His1,Glu14,Arg17]-pramlintide (peptide)
peptide: {C20 diacid-γGlu}-HHHCNTATCATQRLAEFLRHSSNNFGPILPPTNVGSNTY-NH2
modifications: disulfide 4-9
SMILES: CC[C@H](C)[C@H](NC(=O)[C@@H]1CCCN1C(=O)CNC(=O)[C@H](Cc1ccccc1)NC(=O)[C@H](CC(N)=O)NC(=O)[C@H](CC(N)=O)NC(=O)[C@H](CO)NC(=O)[C@H](CO)NC(=O)[C@H](Cc1c[nH]cn1)NC(=O)[C@H](CCCNC(=N)N)NC(=O)[C@H](CC(C)C)NC(=O)[C@H](Cc1ccccc1)NC(=O)[C@H](CCC(=O)O)NC(=O)[C@H](C)NC(=O)[C@H](CC(C)C)NC(=O)[C@H](CCCNC(=N)N)NC(=O)[C@H](CCC(N)=O)NC(=O)[C@@H](NC(=O)[C@H](C)NC(=O)[C@@H]1CSSC[C@H](NC(=O)[C@H](Cc2c[nH]cn2)NC(=O)[C@H](Cc2c[nH]cn2)NC(=O)[C@H](Cc2c[nH]cn2)NC(=O)CC[C@H](NC(=O)CCCCCCCCCCCCCCCCCCC(=O)O)C(=O)O)C(=O)N[C@@H](CC(N)=O)C(=O)N[C@@H]([C@@H](C)O)C(=O)N[C@@H](C)C(=O)N[C@@H]([C@@H](C)O)C(=O)N1)[C@@H](C)O)C(=O)N[C@@H](CC(C)C)C(=O)N1CCC[C@H]1C(=O)N1CCC[C@H]1C(=O)N[C@H](C(=O)N[C@@H](CC(N)=O)C(=O)N[C@H](C(=O)NCC(=O)N[C@@H](CO)C(=O)N[C@@H](CC(N)=O)C(=O)N[C@H](C(=O)N[C@@H](Cc1ccc(O)cc1)C(N)=O)[C@@H](C)O)C(C)C)[C@@H](C)O
For the molecule B1, in experiment [1], the “Amylin receptor rat EC50” value came out at 0.082 nM. Further, the “Amylin receptor human EC50” value in experiment [2] is 0.0775 nM. Further, the “CTa receptor rat EC50” value in experiment [3] is 6.76 nM. The “CTa receptor human EC50” value in experiment [4] turned out to be 0.409 nM.

B2: N-alpha-[(S)-4-Carboxy-4-(19-carboxynonadecanoylamino)butyryl]-His-His-[His1,Glu14,His17]-pramlintide (peptide)
peptide: {C20 diacid-γGlu}-HHHCNTATCATQRLAEFLHHSSNNFGPILPPTNVGSNTY-NH2
modifications: disulfide 4-9
SMILES: CC[C@H](C)[C@H](NC(=O)[C@@H]1CCCN1C(=O)CNC(=O)[C@H](Cc1ccccc1)NC(=O)[C@H](CC(N)=O)NC(=O)[C@H](CC(N)=O)NC(=O)[C@H](CO)NC(=O)[C@H](CO)NC(=O)[C@H](Cc1c[nH]cn1)NC(=O)[C@H](Cc1c[nH]cn1)NC(=O)[C@H](CC(C)C)NC(=O)[C@H](Cc1ccccc1)NC(=O)[C@H](CCC(=O)O)NC(=O)[C@H](C)NC(=O)[C@H](CC(C)C)NC(=O)[C@H](CCCNC(=N)N)NC(=O)[C@H](CCC(N)=O)NC(=O)[C@@H](NC(=O)[C@H](C)NC(=O)[C@@H]1CSSC[C@H](NC(=O)[C@H](Cc2c[nH]cn2)NC(=O)[C@H](Cc2c[nH]cn2)NC(=O)[C@H](Cc2c[nH]cn2)NC(=O)CC[C@H](NC(=O)CCCCCCCCCCCCCCCCCCC(=O)O)C(=O)O)C(=O)N[C@@H](CC(N)=O)C(=O)N[C@@H]([C@@H](C)O)C(=O)N[C@@H](C)C(=O)N[C@@H]([C@@H](C)O)C(=O)N1)[C@@H](C)O)C(=O)N[C@@H](CC(C)C)C(=O)N1CCC[C@H]1C(=O)N1CCC[C@H]1C(=O)N[C@H](C(=O)N[C@@H](CC(N)=O)C(=O)N[C@H](C(=O)NCC(=O)N[C@@H](CO)C(=O)N[C@@H](CC(N)=O)C(=O)N[C@H](C(=O)N[C@@H](Cc1ccc(O)cc1)C(N)=O)[C@@H](C)O)C(C)C)[C@@H](C)O
Consider B2, for which the “Amylin receptor rat EC50” value in experiment [1] is 0.0885 nM. The “Amylin receptor human EC50” value in experiment [2] stood at 0.0853 nM. For the same molecule, in experiment [3], the “CTa receptor rat EC50” value stood at 0.962 nM. For the same molecule, the “CTa receptor human EC50” value in experiment [4] amounted to 0.208 nM.
